Assay [1] deals with T1, amphyphisin SH3 (AMPH_HUMAN), P49418.
T1 chain: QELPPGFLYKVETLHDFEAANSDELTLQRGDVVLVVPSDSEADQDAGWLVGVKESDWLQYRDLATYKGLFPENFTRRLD
The assay is described as follows: SPOT array.

In assay [2] the target is endophilin SH3 (SH3G2_HUMAN), Q99962. The assay is described as follows: SPOT array.

As for DPNFPNKPPLTFDI [Q9H314 810-824], the normalised SPOT signal, Boehringer light units (BLU); mean over the file's lines of this peptide turned out to be 45.5 in assay [1] and 47.9 in assay [2].
Take AEEPLHRPKKELSA [P42858 83-96]: the normalised SPOT signal, Boehringer light units (BLU); mean over the file's lines of this peptide was 134 in assay [1] and 70.2 in assay [2].
Consider DKNIPMKPPTPLLN [AAM33634 99-113], for which the normalised SPOT signal, Boehringer light units (BLU); mean over the file's lines of this peptide in assay [1] came out at 58.3; in assay [2] it was 240.
Consider DKADLIRPKRKYEK [Q9H2F5 327-340], for which the normalised SPOT signal, Boehringer light units (BLU); mean over the file's lines of this peptide was found to be 417 in assay [1] and 64.3 in assay [2].
For DPEDLKRPDPASLK [Q8WTY4 218-231] the same measures were 16.1 and 82.4.
Regarding DGSFLARPSKSNPG [Q06124 26-39], the normalised SPOT signal, Boehringer light units (BLU); mean over the file's lines of this peptide in assay [1] came out at 96.2; in assay [2], 36.7.
For the molecule DIKPLKRPRDEDDA [P11387 132-145], the results for the normalised SPOT signal, Boehringer light units (BLU); mean over the file's lines of this peptide in assay [1] and in assay [2] were 37.9 and 0, respectively.
For DIPEPRRPVVEQAL [O15031 1306-1319], the normalised SPOT signal, Boehringer light units (BLU); mean over the file's lines of this peptide in assay [1] was found to be 37.2; in assay [2] it was 41.3.
On to DPNAPKRPLSGFFL [Q9UJ13 78-91], for which the normalised SPOT signal, Boehringer light units (BLU); mean over the file's lines of this peptide stood at 40.7 in assay [1] and 1710 in assay [2].
AEEQLRRPRIVHVG [Q9UBR1 62-75]: the normalised SPOT signal, Boehringer light units (BLU); mean over the file's lines of this peptide in assay [1] is 24.5; in assay [2] it was 35.1.
With AAESPGRPPPTAAE [Q9UPS7 514-528], the values for the normalised SPOT signal, Boehringer light units (BLU); mean over the file's lines of this peptide in assay [1] and in assay [2] were 22 and 51.1, respectively.
For DIPGPTRPPGQVLS [AAH30713 119-133] the same measures were 75 and 85.2.
As to DLPGPRRPAAAAAM [Q9NQ62 12-25], the figures for the normalised SPOT signal, Boehringer light units (BLU); mean over the file's lines of this peptide in assay [1] and in assay [2] were 33.3 and 66, respectively.
Consider DKKSPTRPKRHAKP [Q99710 3-16], for which the results for the normalised SPOT signal, Boehringer light units (BLU); mean over the file's lines of this peptide in assay [1] and in assay [2] were 4130 and 658, respectively.
For DKIPFKRPSTYGVP [O95444 394-407] the same measures were 35.1 and 67.7.
For DKSPPPRPPSSPYP [O15550 915-929], the values for the normalised SPOT signal, Boehringer light units (BLU); mean over the file's lines of this peptide in assay [1] and in assay [2] were 58.2 and 4090, respectively.
Consider DKKSPTRPKRQAKP [Q9P2W5 3-16], for which the normalised SPOT signal, Boehringer light units (BLU); mean over the file's lines of this peptide in assay [1] came out at 3780; in assay [2], 500.
For DNIPLSRPKRNLSR [Q9Y4P9 18-31] the same measures were 1930 and 138.
In the case of DPNAPKRPPLAFFL [P23497 765-778], the normalised SPOT signal, Boehringer light units (BLU); mean over the file's lines of this peptide in assay [1] is 32; in assay [2], 8420.
As for DMQSFRRPSAASID [Q96QH2 513-526], the normalised SPOT signal, Boehringer light units (BLU); mean over the file's lines of this peptide in assay [1] was determined as 16.7; in assay [2], 56.
For DPPGPPRPPKEPGP [Q9NR59 1285-1299] the same measures were 73.4 and 468.
On to DPEVLKRPEYFGKF [Q9NZN6 122-135], for which the normalised SPOT signal, Boehringer light units (BLU); mean over the file's lines of this peptide in assay [1] was 43.9; in assay [2], 108.
For DLSGLKRPSSSAST [Q9Y338 401-414] the same measures were 31.5 and 27.9.
On to DNLKLFRPKKLLPK [Q9BQL6 374-387], for which the normalised SPOT signal, Boehringer light units (BLU); mean over the file's lines of this peptide came out at 41.9 in assay [1] and 71.6 in assay [2].
As to DMAIPSKPPAASPE [Q8TEH3 531-545], the normalised SPOT signal, Boehringer light units (BLU); mean over the file's lines of this peptide amounted to 40.1 in assay [1] and 80 in assay [2].
Consider DPQAPRRPPSSFLL [Q8WW32 89-102], for which the normalised SPOT signal, Boehringer light units (BLU); mean over the file's lines of this peptide in assay [1] turned out to be 108; in assay [2], 1200.
In the case of DPNAPKRPPSAFFL [P09429 90-103], the values for the normalised SPOT signal, Boehringer light units (BLU); mean over the file's lines of this peptide in assay [1] and in assay [2] were 39.5 and 3610, respectively.
Regarding DPNAPKRPPSGFFL [O15347 88-101], the figures for the normalised SPOT signal, Boehringer light units (BLU); mean over the file's lines of this peptide in assay [1] and in assay [2] were 20 and 5320, respectively.
As for DLHPPPRPPSPTEI [O43154 1259-1273], the normalised SPOT signal, Boehringer light units (BLU); mean over the file's lines of this peptide was found to be 64.8 in assay [1] and 2640 in assay [2].
Consider DPNPPKRPLIFDTN [O14802 1370-1383], for which the results for the normalised SPOT signal, Boehringer light units (BLU); mean over the file's lines of this peptide in assay [1] and in assay [2] were 20.6 and 33.1, respectively.
For DKLSPDRPIRDTRH [Q9ULT9 130-143] the same measures were 3530 and 794.
Take DNGGFKRPLAPSGR [Q9Y5U2 118-131]: the normalised SPOT signal, Boehringer light units (BLU); mean over the file's lines of this peptide in assay [1] was 31.7; in assay [2], 98.6.
For DPNTFKRPQTPPKI [Q9Y4E3 337-350] the same measures were 27.3 and 39.4.
As for DPNAPKRPMSAYML [Q08945 543-556], the normalised SPOT signal, Boehringer light units (BLU); mean over the file's lines of this peptide in assay [1] amounted to 41.4; in assay [2] it was 82.6.
For DGVSLSRPGRTADS [P39191 408-421], the normalised SPOT signal, Boehringer light units (BLU); mean over the file's lines of this peptide in assay [1] is 200; in assay [2], 113.
With DLLSPRRPPDDPWA [BAC03422 263-277], the normalised SPOT signal, Boehringer light units (BLU); mean over the file's lines of this peptide was determined as 20.5 in assay [1] and 83 in assay [2].
As to DKSPPPRPPTSPYP [O14607 862-876], the normalised SPOT signal, Boehringer light units (BLU); mean over the file's lines of this peptide was 83.4 in assay [1] and 4530 in assay [2].
As for AEERPRRPSQEQSA [Q9Y4D0 963-976], the normalised SPOT signal, Boehringer light units (BLU); mean over the file's lines of this peptide came to 17.3 in assay [1] and 882 in assay [2].

The record behind these values is article PMC314469, “Protein Interaction Networks by Proteome Peptide Scanning” (PLoS Biology, 2004).
